The text below walks through data of patent US20120219562A1 (AbbVie / Abbott, published 2012).

In general, koff refers to the first-order rate constant of dissociation. What is called IC50 is the concentration that gives 50% inhibition.

Where a chain is given by its changes, count along the chain named. In names and notes the source's numbering stands. Several values for one entry are separate records, joined by “and”; a condition that tells them apart may be missing. Equal entries are not always repeated. Bounds are passed on as bounds.

Assay [1] deals with T1, human interleukin 12 (human, UniProt P29459 23-219; P29460 23-328).
T1 construct: heterodimer of p35 and p40 linked by a disulfide bridge; also called hIL-12; IL-12
T1 sequence (looked up) 1: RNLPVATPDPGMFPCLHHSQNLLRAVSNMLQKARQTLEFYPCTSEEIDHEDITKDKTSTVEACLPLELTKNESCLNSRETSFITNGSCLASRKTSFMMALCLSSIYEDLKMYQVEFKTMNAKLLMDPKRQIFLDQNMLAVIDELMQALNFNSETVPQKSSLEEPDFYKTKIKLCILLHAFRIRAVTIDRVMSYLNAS
T1 sequence (looked up) 2: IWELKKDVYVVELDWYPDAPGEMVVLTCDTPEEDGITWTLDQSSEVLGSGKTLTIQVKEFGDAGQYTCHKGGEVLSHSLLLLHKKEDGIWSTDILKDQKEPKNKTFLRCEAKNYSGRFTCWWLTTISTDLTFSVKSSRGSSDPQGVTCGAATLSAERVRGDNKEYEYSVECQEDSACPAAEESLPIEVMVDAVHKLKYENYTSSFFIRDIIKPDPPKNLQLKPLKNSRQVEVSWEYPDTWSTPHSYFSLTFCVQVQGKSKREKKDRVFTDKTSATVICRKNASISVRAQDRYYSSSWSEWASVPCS
The experiment in a line: SPR (BIAcore). In general terms: SPR reads the build-up and loss of mass on a sensor chip optically.

The target of assay [2] is T1, human interleukin 12. As to the kind of experiment: cell-based or functional assay.
The target in assay [3] is T1, human interleukin 12. The experiment in a line: RB assay (IL-12 receptor binding).
For assay [4], the target named is T2, human interleukin 12 (recombinant human IL-12, p70 heterodimer) (human, UniProt P29459 23-219; P29460 23-328).
T2 sequence (looked up) 1: T1 sequence (looked up) 1
T2 sequence (looked up) 2: T1 sequence (looked up) 2
As to the kind of experiment: cell-based or functional assay.

Assay [5] concerns the target T2, human interleukin 12 (recombinant human …). As to the kind of experiment: SPR (BIAcore), off-rate from human IL-12.
Assay [6] shares this target. As to the kind of experiment: RB assay: inhibition of IL-12 binding to its receptor.
The target is the same in assay [7]. As to the kind of experiment: cell-based or functional assay. This is another data set of the same source.
The target in assay [8] is T3, human interleukin 12 (p70 heterodimer of p35 and p40) (human, UniProt P29459 23-219; P29460 23-328).
T3 construct: Recombinant human IL-12; also called hIL-12; IL-12
T3 sequence (looked up) 1: T1 sequence (looked up) 1
T3 sequence (looked up) 2: T1 sequence (looked up) 2
The experiment in a line: surface plasmon resonance (BIAcore).

Assay [9] has as its target T3, human interleukin 12 (p70 heterodimer …). As to the kind of experiment: SPR (BIAcore), off-rate.
The target is the same in assay [10]. As to the kind of experiment: SPR (BIAcore), off-rate. The source holds these as a separate data set.
Assay [11] has the same target. As to the kind of experiment: SPR (BIAcore), off-rate. This is another data set of the same source.
Assay [12] shares this target. The experiment in a line: SPR (BIAcore), off-rate. This is another data set of the same source.
For assay [13] the target is unchanged. The experiment in a line: SPR (BIAcore), off-rate. The source holds these as a separate data set.
The target is the same in assay [14]. As to the kind of experiment: SPR (BIAcore), off-rate. This is another data set of the same source.
For assay [15] the target is unchanged. The experiment in a line: SPR (BIAcore), off-rate. The source holds these as a separate data set.

B1: 136-14 (antibody, V domains shown)
VH: QVQLVQSGGGVVQPGRSLRLSCAASGFTFSSYGMHWVRQAPGKGLEWVAFIRYDGSNKYYADSVKGRFTISRDNSKNTLYLQMKSLRAEDTAVYYCTTHGSHDNWGQGTMVTVSS
VL: SYVLTQPPSVSGTPGQRVTISCSGGRSNIGSNTVKWYQQLPGTAPKLLIYGNDQRPSGVPDRFSGSKSGTSASLAITGVQAEDEADYYCQTYDRGFTGSRVFGTGTKVTVL
In turn, B1 had a koff in assay [1] of 0.0011 s⁻¹. Also, in [2], the “PHA assay IC50” value came out at 100 nM. Besides, the IC50 in assay [3] worked out at 0.3 nM.

B2: 73-B1 (antibody, V domains shown)
VH: B1 VH with H99S, H102Y, N104Y
VL: SYVLTQPPSVSGTPGQRVTISCSGGRSNIGSNTVKWYQQLPGTAPKLLIYGNDQRPSGVPDRFSGSKSGTSASLAITGVQAEDEADYYCHSYDSDFTGSRVFGTGTKVTVLG
In turn, B2 registered a koff in assay [1] of 0.00325 s⁻¹. The molecule further gave an IC50 in assay [3] above 10 nM.

B3: Y61-L50Y* IgG (antibody, V domains shown)
VH: B1 VH with T97K
VL: QSVLTQPPSVSGAPGQRVTISCSGSRSNIGSNTVKWYQQLPGTAPKLLIYYNDQRPSGVPDRFSGSKSGTSASLAITGLQAEDEADYYCQSYDRGTHPALLFGTGTKVTVL
Consider B3, for which, in [4], the “IFN gamma IC50” value is 0.03 nM and the “PHA assay IC50” value was 0.02 nM. Moreover, the koff in [5] came out at 6.98e-05 s⁻¹.

B4: Y61-L94Y IgG (antibody, V domains shown)
VH: B1 VH with T97K
VL: B3 VL with Y51G, G95Y
With B4, in assay [4], the “IFN gamma IC50” value is 0.04 nM and the “PHA assay IC50” value was 0.05 nM. In addition, the koff in [5] worked out at 0.000127 s⁻¹. Also, in assay [6], the IC50 turned out to be 0.06 nM.

B5: 73-C1 (antibody, V domains shown)
VH: B1 VH with H99S, H102Y, N104Y
VL: B2 VL with D95R
In [1], B5 returned a koff of 0.00271 s⁻¹. In [3], this molecule came in with an IC50 above 10 nM.

B6: 73-B6 (antibody, V domains shown)
VH: B1 VH with H99S, H102Y, N104Y
VL: B2 VL with S94N, D95R
Take B6: the koff in [1] was 0.00251 s⁻¹. The molecule also returned an IC50 in assay [3] above 10 nM.

B7: 136-17 (antibody, V domains shown)
VH: B1 VH
VL: B1 VL with T91S, R94W, G95N
Consider B7, for which, in assay [1], the koff came out at 2.9e-05 s⁻¹. Besides, the “PHA assay IC50” value in assay [2] came to 7 nM. The IC50 in assay [3] was determined as 2 nM.

B8: 136-15M1 (antibody, V domains shown)
VH: B1 VH with T97A, T98K
VL: B2 VL with H90Q, S94R, D95G
B8 gave an IC50 in assay [3] of 0.4 nM.

B9: Y61 IgG (antibody, V domains shown)
VH: B1 VH with T97K
VL: B2 VL with H90Q, S94R, D95G, F96T, T97H, G98P, S99A, R100L, V101L
notes: IgG
B9: the “PHA assay IC50” value in [4] turned out to be 0.13 nM. In assay [7], the “PHA assay IC50 (M) p70:p40 1:0” value is 1.8e-10 M and the “PHA assay IC50 (M) p70:p40 1:50” value turned out to be 1.8e-10 M. The koff in [5] came out at 0.00015 s⁻¹.

B10: 136-16 (antibody, V domains shown)
VH: B1 VH
VL: B1 VL with T91S, G95R
B10: the koff in assay [1] is 0.00061 s⁻¹. Also, the “PHA assay IC50” value in [2] came out at 5 nM. Moreover, in [3], the IC50 worked out at 0.3 nM.

B11: 136-21 (antibody, V domains shown)
VH: B1 VH
VL: B1 VL with T91S, R94N
For the molecule B11, the koff in [1] stood at 0.00042 s⁻¹. In [3], this molecule had an IC50 of 2 nM.

B12: 136-15 (antibody, V domains shown)
VH: B1 VH with T97K
VL: B2 VL with G25S, H90Q, S91T, S94K, D95G, R100S
With B12, in assay [7], the “PHA assay IC50 (M) p70:p40 1:0” value worked out at 2e-09 M.

B13: 136-10 (antibody, V domains shown)
VH: B1 VH with N104D
VL: B1 VL with T91S
Regarding B13, in assay [1], the koff was determined as 0.0014 s⁻¹. The same molecule gave an IC50 in assay [3] of 2 nM.

B14: Y61 human anti-hIL-12 antibody (antibody, V domains shown)
VH: B1 VH with T97K
VL: B2 VL with H90Q, S94R, D95G, F96T, T97H, G98P, S99A, R100L, V101L
Regarding B14, the koff in [8] is around 0.0002 s⁻¹; in assay [9], 0.000168 s⁻¹ and 0.000337 s⁻¹ and 0.000178 s⁻¹; in assay [10], 0.000204 s⁻¹ and 0.000206 s⁻¹ and 0.000151 s⁻¹ and 0.000178 s⁻¹; in assay [11], 0.00031 s⁻¹ and 0.000385 s⁻¹; in assay [12], 0.000397 s⁻¹ and 0.000375 s⁻¹ and 0.000255 s⁻¹ and 0.000143 s⁻¹; in assay [13], 0.000403 s⁻¹. Besides, the koff is 0.000211 s⁻¹ and 0.000229 s⁻¹ and 0.000241 s⁻¹ in [14]; 0.000215 s⁻¹ and 0.000297 s⁻¹ in assay [15].

B15: SEQ ID NO: 532 (Y61, I at L53) (antibody, V domains shown)
VH: B1 VH with T97K
VL: B2 VL with Q54I, H90Q, S94R, D95G, F96T, T97H, G98P, S99A, R100L, V101L
B15: the koff in assay [15] amounted to 0.000855 s⁻¹.

B16: J695 (Y61-L94Y-L50Y IgG*) (antibody, V domains shown)
VH: B1 VH with Q6E, K84N, T97K
VL: QSVLTQPPSVSGAPGQRVTISCSGSRSNIGSNTVKWYQQLPGTAPKLLIYYNDQRPSGVPDRFSGSKSGTSASLAITGLQAEDEADYYCQSYDRYTHPALLFGTGTKVTVLG
notes: also called ABT-874
Consider B16, for which the koff in [5] was 5.14e-05 s⁻¹.

B17: SEQ ID NO: 533 (Y61, P at L53) (antibody, V domains shown)
VH: B1 VH with T97K
VL: B16 VL with Q1S, S2Y, A13T, S25G, Y51G, Q54P, L79V, Y95G
Take B17: the koff in assay [15] amounted to 0.000974 s⁻¹.

B18: Joe9 wt IgG1 (antibody, V domains shown)
VH: not shown
VL: SYVLTQPPSVSGTPGQRVTISCSGGRSNIGSNTVKWYQQLPGTAPKLLIYGNDQRPSGVPDRFSGSKSGTSASLAITGVQAEDEADYYCQSYDSSLRG
B18: in assay [2], the “PHA assay IC50” value is 500 nM.
